Laboratory results taken from publication PMC10127613 (mBio, 2023).
Values belong to the molecule of their own block, whether it stands above or below them.

Assays:
[1] = molecular target: T1, Clr (Sinorhizobium meliloti, UniProt Q92SD2); test: isothermal titration calorimetry; assay type: binding
T1 construct: gene SMc02175

[2] = molecular target: Sinorhizobium meliloti Clr, C-terminally His6-tagged (Sinorhizobium meliloti); test: SEC; apo-Clr in solution (no cNMP, no DNA); dimer to monomers
[3] = molecular target: Sinorhizobium meliloti Clr, C-terminally His6-tagged (Sinorhizobium meliloti); test: crystal structure; Clr (0.25 or 0.44 mM) with 25 mM cAMP or cGMP, 25 mM MgCl2 and 1.25-fold excess of 19-mer/14-mer duplex CBS-DNA; sitting-drop vapor diffusion, 291 K (cAMP) or 281 K (cGMP)
[4] = molecular target: T2, Clr (Sinorhizobium meliloti, UniProt Q92SD2 1-234); test: ITC; 1 mM cAMP; EMSA: 2 mM HEPES pH 7.0, 30 mM NaCl, 50 mM KCl, 850 ng salmon sperm DNA, 1 ug BSA, 20 ng Cy3-DNA, 3 ug Clr in 10 uL, 1 mM cAMP, room temperature. ITC: 20 mM HEPES, 300 mM NaCl, 20 mM MgCl2, pH 7.0, 25 C; settings: protein: recombinant; tags: C-terminal His6 (pET36b, NdeI/XhoI); chain copies: 2; two copies of each strand; duplex arms joined by palindromic 5' overhang CTAG (4 nt) of the 19-mer, 1 nt 3' overhang G; nicked
T2 sequence: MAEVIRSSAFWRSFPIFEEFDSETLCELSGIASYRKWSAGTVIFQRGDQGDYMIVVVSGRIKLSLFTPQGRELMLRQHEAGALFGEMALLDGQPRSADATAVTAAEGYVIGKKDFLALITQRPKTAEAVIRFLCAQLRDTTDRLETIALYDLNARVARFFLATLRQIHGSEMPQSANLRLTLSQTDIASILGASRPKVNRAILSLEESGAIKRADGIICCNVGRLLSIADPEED

Molecule: Nc1nc2c(ncn2[C@@H]2O[C@@H]3COP(=O)(O)O[C@H]3[C@H]2O)c(=O)[nH]1 [cGMP]
- Kd [1]: 23.8 ± 14.5 µM

B1: CBS-DNA, two identical 19-mer/14-mer duplexes joined by palindromic CTAG sticky ends (nicked 33-nt) (dsDNA)
DNA 1: CTAGGTAACATTACTCGCG
DNA 2: GCGAGTAATGTTAC
DNA 3: CTAGGTAACATTACTCGCG
DNA 4: GCGAGTAATGTTAC
- Kd [4]: 6 ± 4.7 µM

Further lines, results first:

- percent in the monomeric state [2]: 86%
- stoichiometry N [2]: 2
Molecule: Sinorhizobium meliloti Clr, C-terminally His6-tagged

- stoichiometry N [3]: 2
Molecule: Sinorhizobium meliloti Clr, C-terminally His6-tagged (natural protein)
